Assay results: paper PMC7105484, “Crystal structures of REF6 and its complex with DNA reveal diverse recognition mechanisms” (Cell Discovery, 2020)
Residue numbers refer to the chain shown, from its start.

How the values were obtained:
Conditions in all cases: protein: recombinant; tags: His6-MBP or GST, TEV-cleavable; label: FAM in MST; none in crystal and EMSA; 5' overhang 1 nt on both strands, 15 bp
REF6 W1311A = biological target: T1, REF6 W1311A (Arabidopsis thaliana, UniProt Q9STM3 1223-1360, W1311A); assay: MST and EMSA; marked abrogation; MST: 20 mM HEPES pH 7.3, 150 mM NaCl, 0.2 mM TCEP, 0.5% CA-630, 25 C; EMSA: 30 uM protein, 10 uM dsDNA, 20 mM Tris pH 8.0, 100 mM NaCl, 2.5 mM MgCl2, 0.1% CA-630, 10% glycerol, 1 uM ZnSO4, 1 mM DTT, 4 C
T1 sequence: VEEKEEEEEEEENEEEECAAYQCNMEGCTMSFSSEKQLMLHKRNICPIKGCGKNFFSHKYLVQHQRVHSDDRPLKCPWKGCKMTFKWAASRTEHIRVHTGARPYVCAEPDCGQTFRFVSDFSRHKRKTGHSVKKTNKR

REF6 S1341W = biological target: T2, REF6 S1341W (Arabidopsis thaliana, UniProt Q9STM3 1223-1360, S1341W); assay: as above
T2 sequence: T1 sequence with A89W, S119W

REF6 V1340A = biological target: T3, REF6 V1340A (Arabidopsis thaliana, UniProt Q9STM3 1223-1360, V1340A); assay: MST; MST: 20 mM HEPES pH 7.3, 150 mM NaCl, 0.2 mM TCEP, 0.5% CA-630, 25 C; EMSA: 30 uM protein, 10 uM dsDNA, 20 mM Tris pH 8.0, 100 mM NaCl, 2.5 mM MgCl2, 0.1% CA-630, 10% glycerol, 1 uM ZnSO4, 1 mM DTT, 4 C
T3 sequence: T1 sequence with A89W, V118A

B1: NAC004 m5 (dsDNA)
DNA 1: CTTTCTCTGTTTTGTC
DNA 2: GGACAAAACAGAGAAA
binding result (REF6 W1311A): no binding | binding result (REF6 S1341W): no binding | Kd (REF6 V1340A): 500 nM
